Laboratory results: PMC11659886, “Bioinformatics-Facilitated Identification of Novel Bacterial Sulfoglycosidases That Hydrolyze 6-Sulfo-N-acetylglucosamine” (ACS Bio & Med Chem Au, 2024)

How the values were obtained:
[1] = tested on: CC(=O)N[C@H]1[C@H](Oc2ccc3c(C)cc(=O)oc3c2)O[C@H](COS(=O)(=O)O)[C@@H](O)[C@@H]1O; experiment: purified protein; details: pH 6.0, 25 °C, 25 mM Bis-tris propane, 25 mM citrate, 300 mM NaCl
[2] = tested on: CC(=O)N[C@H]1[C@H](Oc2ccc3c(C)cc(=O)oc3c2)O[C@H](CO)[C@@H](O)[C@@H]1O; experiment: purified protein; details: pH 6.0, 25 °C, 25 mM Bis-tris propane, 25 mM citrate, 300 mM NaCl
From the text: fluorometric release of 4-methylumbelliferone, Michaelis-Menten fit on YG enzyme

[3] = tested on: T1, CC(=O)N[C@H]1[C@H](Oc2ccc3c(C)cc(=O)oc3c2)O[C@H](COS(=O)(=O)O)[C@@H](O)[C@@H]1O; experiment: fluorometric release of 4-methylumbelliferone, Michaelis-Menten fit; assay type: biochemical, Bacteroides thetaiotaomicron; details: pH 5.5, 25 °C, 25 mM Bis-tris propane, 25 mM citrate, 300 mM NaCl
T1 construct: residues 22-546, His6-tagged (pET23-Bt4394(22-546)-6His), expressed in E. coli BL21(DE3)
From the text: (§1) fluorometric release of 4-methylumbelliferone, Michaelis-Menten fit on Bt4394

[4] = tested on: CC(=O)N[C@H]1[C@H](Oc2ccc3c(C)cc(=O)oc3c2)O[C@H](COS(=O)(=O)O)[C@@H](O)[C@@H]1O; experiment: as above; assay type: biochemical, Prevotella sp. CAG:5226; details: pH 6.0, 25 °C, 25 mM Bis-tris propane, 25 mM citrate, 300 mM NaCl
From the text: (§2) fluorometric release of 4-methylumbelliferone, Michaelis-Menten fit on WG enzyme

[5] = tested on: CC(=O)N[C@H]1[C@H](Oc2ccc3c(C)cc(=O)oc3c2)O[C@H](CO)[C@@H](O)[C@@H]1O; experiment: as above; assay type: biochemical, Prevotella sp. CAG:5226; details: pH 6.0, 25 °C, 25 mM Bis-tris propane, 25 mM citrate, 300 mM NaCl
From the text: as §2

[6] = substrate: CC(=O)N[C@H]1[C@H](Oc2ccc3c(C)cc(=O)oc3c2)O[C@H](COS(=O)(=O)O)[C@@H](O)[C@@H]1O; experiment: as above; assay type: biochemical, Bacteroides thetaiotaomicron; details: pH 5.5, 25 °C, 25 mM Bis-tris propane, 25 mM citrate, 300 mM NaCl
From the text: as §1

[7] = substrate: CC(=O)N[C@H]1[C@H](Oc2ccc3c(C)cc(=O)oc3c2)O[C@H](CO)[C@@H](O)[C@@H]1O; experiment: as above; assay type: biochemical, Bacteroides thetaiotaomicron; details: pH 5.5, 25 °C, 25 mM Bis-tris propane, 25 mM citrate, 300 mM NaCl
From the text: as §1

WG enzyme (Prevotella sp. CAG:5226; W417A)
Km [1]: 17 ± 2 µM | kcat [1]: 45 ± 1 s⁻¹ | kcat/Km [1]: 2.6e+06 ± 300000 M⁻¹ s⁻¹

YG enzyme (Alloprevotella sp. oral taxon 473 str. F0040)
Km [1]: 12 ± 1 µM | kcat [1]: 76 ± 2 s⁻¹ | kcat/Km [1]: 6e+06 ± 2e+06 M⁻¹ s⁻¹ | Km [2]: 2209 ± 355 µM | kcat [2]: 11.7 ± 0.7 s⁻¹ | kcat/Km [2]: 5000 ± 2000 M⁻¹ s⁻¹

YG enzyme (Alloprevotella sp. oral taxon 473 str. F0040; N445D)
Km [1]: 130 ± 14 µM | kcat [1]: 98 ± 3 s⁻¹ | kcat/Km [1]: 800000 ± 200000 M⁻¹ s⁻¹

Bt4394 (Bacteroides thetaiotaomicron VPI-5482; I432G/Q431W)
Km [3]: 194 ± 16 µM | kcat [3]: 12 ± 0.3 s⁻¹ | kcat/Km [3]: 60000 ± 20000 M⁻¹ s⁻¹

WG enzyme (Prevotella sp. CAG:5226)
Km [4]: 5.1 ± 0.3 µM | kcat [4]: 39.9 ± 0.6 s⁻¹ | kcat/Km [4]: 8e+06 ± 2e+06 M⁻¹ s⁻¹ | Km [5]: 2706 ± 344 µM | kcat [5]: 11.6 ± 0.5 s⁻¹ | kcat/Km [5]: 4000 ± 2000 M⁻¹ s⁻¹

YG enzyme (Alloprevotella sp. oral taxon 473 str. F0040; R446A)
Km [1]: 90 ± 9 µM | kcat [1]: 97 ± 3 s⁻¹ | kcat/Km [1]: 1.1e+06 ± 300000 M⁻¹ s⁻¹

Bt4394 (Bacteroides thetaiotaomicron VPI-5482; I432G/Q431Y)
Km [3]: 546 ± 37 µM | kcat [3]: 31.6 ± 0.7 s⁻¹ | kcat/Km [3]: 60000 ± 20000 M⁻¹ s⁻¹

WG enzyme (Prevotella sp. CAG:5226; N423D)
Km [1]: 56 ± 6 µM | kcat [1]: 69 ± 4 s⁻¹ | kcat/Km [1]: 1.2e+06 ± 700000 M⁻¹ s⁻¹

WG enzyme (Prevotella sp. CAG:5226; R424A)
Km [1]: 47 ± 6 µM | kcat [1]: 62 ± 2 s⁻¹ | kcat/Km [1]: 1.3e+06 ± 300000 M⁻¹ s⁻¹

B1: Bt4394 (Bacteroides thetaiotaomicron VPI-5482) (protein)
chain: QEIALTPQPAHLTVKDGRFEFGNQLKAKVTPYQGDSIRMVFESFKKELQEATGIKVSSTQKEAKARIILDLNPQLPAEAYKLNVSKKQVRIEASRPAGFYYALQTLKQLMPRNVMAGVATSDHSQWSLPSVEIEDAPRFEWRGFMLDEGRHFFGKDEIKRVIDMMAIYKMNRFHWHLTEDQGWRIEIKKYPKLTETGAWRNSKVLAYGDVKPDGERYGGFYTQKDIKEIVAYAKKKFIEIIPEIDIPGHSQAAVAAYPEFLACDPRDKHEVWLQQGISTDVINVANPKAMQFAKEVIDELTELFPFNYIHLGGDECPTRKWQKNDECKKLLSEIGSSNFRDLQIYFYKQLKDYIATKPADQQRQLIFWNEVLHGNTSILGNDITIMAWIGANAAAKQAAKQGMNTILSPQIPYYINRKQSKLPTEPMSQGHGTETVEAVYNYQPLKDVDAALQPYYKGVQANFWTEWVTEPSVLEYLMLPRLAAVAEAGWTPQEKRNYEDFKERIRKDAELYDLKGWNYGKHIMK
notes: residues 22-546, His6-tagged (pET23-Bt4394(22-546)-6His), expressed in E. coli BL21(DE3)
Km [6]: 39 ± 4 µM | kcat [6]: 25.8 ± 0.7 s⁻¹ | kcat/Km [6]: 700000 ± 200000 M⁻¹ s⁻¹ | Km [7]: 2183 ± 189 µM | kcat [7]: 2.9 ± 0.1 s⁻¹ | kcat/Km [7]: 1300 ± 500 M⁻¹ s⁻¹
